# Measurements from patent publication US20260167959A1, “APTAZYME-BASED REGULATABLE GENE EXPRESSION SYSTEMS” (REJUVENATE BIO INC, priority 2022, published 2026).
# Residue numbers refer to the chain shown, from its start.
# B1: RA298 (nucleic acid)
# DNA: GCCGGAATACCAGCATCGTCTTGATGCCCTTGGAAGTCCGGCGTCCTGGATTCGCGGAAACGCGTACATCCAGCTGACGAGTCCCAAATAGGACGAAACGCGC
# modifications: expressed or natural sequence
# B2: RA285 (nucleic acid)
# DNA: GCGCGTCCTGGATTCGCGGAAACGCAGTGATACCAGCATCGTCTTGATGCCCTTGGCAGCACTGTACATCCAGCTGACGAGTCCCAAATAGGACGAAACGCGC
# modifications: expressed or natural sequence
# B3: RA280 (nucleic acid)
# DNA: GCGCGTCCTGGATTCGCGGAAACGCGTACATCCAGCTGACGAGTCCCAAATAGGAGGAATACCAGCATCGTCTTGATGCCCTTGGAAGTCCCGAAACGCGC
# modifications: expressed or natural sequence
# B4: RA293 (nucleic acid)
# DNA: GCGGGAATACCAGCATCGTCTTGATGCCCTTGGAAGTCCCGTCCTGGATTCGCGGAAACGCGTACATCCAGCTGACGAGTCCCAAATAGGACGAAACGCGC
# modifications: expressed or natural sequence
# B5: RA284 (nucleic acid)
# DNA: GCGCGTCCTGGATTCGCGGAAACGGAATACCAGCATCGTCTTGATGCCCTTGGAAGTCCGCGTACATCCAGCTGACGAGTCCCAAATAGGACGAAACGCGC
# modifications: expressed or natural sequence
# B6: RA287 (nucleic acid)
# DNA: GCGCGTCCTGGATTCGCGGAAACGCGTACATCCAGCTGACGAAGTGATACCAGCATCGTCTTGATGCCCTTGGCAGCACTGTCCCAAATAGGACGAAACGCGC
# modifications: expressed or natural sequence
# B7: RA028 (nucleic acid)
# DNA: B6 DNA with A43C, T45G, G46A, C74A, C77T, A78C, T80G
# modifications: expressed or natural sequence
# B8: RA289 (nucleic acid)
# DNA: GCGCGTCCTGGATTCGCGGAAACGCGTACATCCAGGAATACCAGCATCGTCTTGATGCCCTTGGAAGTCCGCTGACGAGTCCCAAATAGGACGAAACGCGC
# modifications: expressed or natural sequence
# B9: RA290 (nucleic acid)
# DNA: GCGCGTCCTGGATTCGCGGAAACGCGTACATCCAGCTGACGACCGGAATACCAGCATCGTCTTGATGCCCTTGGAAGTCCGGGTCCCAAATAGGACGAAACGCGC
# modifications: expressed or natural sequence
# B10: RA297 (nucleic acid)
# DNA: GCGCGGGAATACCAGCATCGTCTTGATGCCCTTGGAAGTCCTCCTGGATTCGCGGAAACGCGTACATCCAGCTGACGAGTCCCAAATAGGACGAAACGCGC
# modifications: expressed or natural sequence
# B11: RA027 (nucleic acid)
# DNA: GCGCGTCCTGGATTCGCGGAAACGCGTACAGTGATACCAGCATCGTCTTGATGCCCTTGGCAGCACTATCCAGCTGACGAGTCCCAAATAGGACGAAACGCGC
# modifications: expressed or natural sequence
# B12: RA278 (nucleic acid)
# DNA: GCGCGTCCTGGATTCGAGTGATACCAGCATCGTCTTGATGCCCTTGGCAGCACTCGGAAACGCGTACATCCAGCTGACGAGTCCCAAATAGGACGAAACGCGC
# modifications: expressed or natural sequence
# B13: RA291 (nucleic acid)
# DNA: GCTGTCACCGGAATACCAGCATCGTCTTGATGCCCTTGGAAGTCCGGTCTGATGAGTCCCATAAGGACGAAACAGC
# modifications: expressed or natural sequence
# B14: RA282 (nucleic acid)
# DNA: GCGCGTCCTGGATTCGCGAGAATACCAGCATCGTCTTGATGCCCTTGGAAGTCTCGCGGAAACGCGTACATCCAGCTGACGAGTCCCAAATAGGACGAAACGCGC
# modifications: expressed or natural sequence
# B15: RA288 (nucleic acid)
# DNA: GCGCGTCCTGGATTCGCGGAAACGCGTACATCCAGCTGACGAGTCCCAAATAAGTGATACCAGCATCGTCTTGATGCCCTTGGCAGCACTGGACGAAACGCGC
# modifications: expressed or natural sequence
# B16: RA294 (nucleic acid)
# DNA: GCGCGTCCTGGATTCGCGGAAACGAGAATACCAGCATCGTCTTGATGCCCTTGGAAGTCTCGCGTACATCCAGCTGACGAGTCCCAAATAGGACGAAACGCGC
# modifications: expressed or natural sequence
# B17: RA276 (nucleic acid)
# DNA: GCGCGTCCTGGATTCGCGGAAACGCGTACATCCAGCTGACGAAGAATACCAGCATCGTCTTGATGCCCTTGGAAGTCTGTCCCAAATAGGACGAAACGCGC
# modifications: expressed or natural sequence
# B18: RA292 (nucleic acid)
# DNA: GCGCGTCGGAATACCAGCATCGTCTTGATGCCCTTGGAAGTCCGCCTGGATTCGCGGAAACGCGTACATCCAGCTGACGAGTCCCAAATAGGACGAAACGCGC
# modifications: expressed or natural sequence
# B19: RA286 (nucleic acid)
# DNA: GCGCGTCCTGGATTCGCGGAAAAGAATACCAGCATCGTCTTGATGCCCTTGGAAGTCTCGCGTACATCCAGCTGACGAGTCCCAAATAGGACGAAACGCGC
# modifications: expressed or natural sequence
# B20: RA295 (nucleic acid)
# DNA: B19 DNA with A23G, T58C
# modifications: expressed or natural sequence
# B21: RA275 (nucleic acid)
# DNA: GCGCGTCCTGGATTGAGAATACCAGCATCGTCTTGATGCCCTTGGAAGTCTCCGCGGAAACGCGTACATCCAGCTGACGAGTCCCAAATAGGACGAAACGCGC
# modifications: expressed or natural sequence
# B22: RA296 (nucleic acid)
# DNA: GCGCGTCCTGGATTCGCGGAAACGCGTACATCCAGCTGACGAGTCCCAAATAGGAGAATACCAGCATCGTCTTGATGCCCTTGGAAGTCTACGAAACGCGC
# modifications: expressed or natural sequence
# B23: RA277 (nucleic acid)
# DNA: GCGCGTCCTGGATTCGCGGAAACGCGTACATCCGAGAATACCAGCATCGTCTTGATGCCCTTGGAAGTCTCAGCTGACGAGTCCCAAATAGGACGAAACGCGC
# modifications: expressed or natural sequence
# B24: RA002 (nucleic acid)
# DNA: GCGCGTCCTGGATTCGCGGAAACGCGTACATCCAGCTGACGAGTCCCAAATAGGACGAAACGAGAATACCAGCATCGTCTTGATGCCCTTGGAAGTCTCGCGCGC
# modifications: expressed or natural sequence
# B25: RA283 (nucleic acid)
# DNA: GCGCGTCCTGGAAGAATACCAGCATCGTCTTGATGCCCTTGGAAGTCTTTCGCGGAAACGCGTACATCCAGCTGACGAGTCCCAAATAGGACGAAACGCGC
# modifications: expressed or natural sequence
# B26: RA281 (nucleic acid)
# DNA: GCGCGTCCTGGATTCGCGGAAACGCGTACATCCAGCTGACGAGTCCCAAATACGAGAATACCAGCATCGTCTTGATGCCCTTGGAAGTCTCGGGACGAAACGCGC
# modifications: expressed or natural sequence
# B27: RA279 (nucleic acid)
# DNA: GCGCGTCCTGGATTCGCGGAAACGCGTACATCCAGCTGACGAGTCCCAAATAGGACGACGAGAATACCAGCATCGTCTTGATGCCCTTGGAAGTCTCGAACGCGC
# modifications: expressed or natural sequence
# System: Renilla luciferase RNA
# Assay: Barcoded aptazyme variant library screen: un-cleaved Renilla luciferase RNA by barcode read counts, HEK293-T cells
# Type: cell-based
# Conditions: un-cleaved Renilla luciferase RNA, HEK293-T cells cultured with 1 mM theophylline (ON) over without theophylline (OFF); barcode read counts, triplicate
# Source text: Based on the findings from Example 1, an aptazyme variant library was generated from the T3H48 ribozyme with one of seven variant theophylline aptamers inserted sequentially after each nucleotide of the DNA sequence encoding the T3H48 ribozyme sequence. […] The seven variant theophylline aptamers vary in their communication channels, which are the ribonucleotides of the aptamer that attach to the ribozyme sequence (see, Table 2).
# The library was barcoded with unique sequences of nine nucleotides flanked by forward and reverse primer amplification sequences.
# The aptazyme library was then PCR amplified and cloned into the psiCHECK™-2 dual luciferase vector in the 3′ UTR of the Renilla luciferase gene. […] The next day, the cells were isolated followed by DNA and RNA extraction using standard methods. The purified RNA was then converted to cDNA and the barcoded portion of the aptazyme library was PCR amplified. Similarly, the DNA was PCR amplified and all the samples were sequenced. All experimental conditions (with theophylline and without theophylline) were performed in triplicate. The read count for each barcode was determined with a custom build code and the data was normalized to identify the un-cleaved fractions of the Renilla luciferase RNA from cells that were cultured in the presence or absence of theophylline for each aptazyme, which was used to obtain the fold-change between ON- and OFF-states (FIG. 2).
row,Molecule,Fold change in RNA expression between the ON state and the OFF state
1,B1,1.0 fold
2,B2,1.0 fold
3,B3,1.0 fold
4,B4,1.0 fold
5,B5,1.0 fold
6,B6,1.0 fold
7,B7,2.3 fold
8,B8,1.0 fold
9,B9,1.0 fold
10,B10,1.0 fold
11,B11,2.4 fold
12,B12,1.0 fold
13,B13,1.0 fold
14,B14,1.0 fold
15,B15,1.0 fold
16,B16,1.0 fold
17,B17,1.0 fold
18,B18,1.0 fold
19,B19,1.0 fold
20,B20,1.0 fold
21,B21,1.0 fold
22,B22,1.0 fold
23,B23,1.0 fold
24,B24,>6 fold
25,B25,1.0 fold
26,B26,1.0 fold
27,B27,1.0 fold
